From patent US20260258125A1 come the findings set out here.

The target of test [1] is human CEACAM5 on 293T cells (293T-huCEACAM5 cells) (human) (UniProt P06731). The test is described as follows: cell-based or functional assay. Also noted: unit not given beside the values.
In test [2] the target is human CEACAM6 on 293T cells (293T-huCEACAM6 cells) (human) (UniProt P40199). Kind of test: cell-based or functional assay. Also noted: unit not given beside the values.
In test [3] the target is membrane-bound endogenous human CEACAM5 and CEACAM6 on BxPC3 cells. Kind of test: cell-based or functional assay. Also noted: unit not given beside the values.
Test [4] concerns the target membrane-bound endogenous human CEACAM5 and CEACAM6 on LS 174T cells. Kind of test: cell-based or functional assay. Further details: unit not given beside the values.
The target in test [5] is membrane-bound endogenous human CEACAM5 and CEACAM6 on BxPC3 cells. Kind of test: cell-based or functional assay.
Test [6] addresses membrane-bound endogenous human CEACAM5 and CEACAM6 on LS 174T cells. Kind of test: cell-based or functional assay.
Test [7] deals with membrane-bound endogenous human CEACAM5 and CEACAM6 on BxPC3 cells. Kind of test: flow cytometry on BxPC3 cells.
Test [8] addresses membrane-bound endogenous human CEACAM5 and CEACAM6 on LS 174T cells. The test is described as follows: flow cytometry on LS 174T cells. Background: Flow cytometry measures light scatter and fluorescence of single cells or particles in a stream.
Test [9] addresses antigen of the anti-CEACAM5/6 antibodies on HPAC cells. The test is described as follows: cell-based or functional assay.
Test [10] addresses human CEACAM5 on 293T cells (293T-huCEACAM5 cells) (human) (UniProt P06731). Kind of test: cell-based or functional assay.
Test [11] deals with human CEACAM6 on 293T cells (293T-huCEACAM6 cells) (human) (UniProt P40199). Kind of test: cell-based or functional assay.

Chain of human CEACAM6 on 293T cells (293T-huCEACAM6 cells) (human) (P40199 35-320): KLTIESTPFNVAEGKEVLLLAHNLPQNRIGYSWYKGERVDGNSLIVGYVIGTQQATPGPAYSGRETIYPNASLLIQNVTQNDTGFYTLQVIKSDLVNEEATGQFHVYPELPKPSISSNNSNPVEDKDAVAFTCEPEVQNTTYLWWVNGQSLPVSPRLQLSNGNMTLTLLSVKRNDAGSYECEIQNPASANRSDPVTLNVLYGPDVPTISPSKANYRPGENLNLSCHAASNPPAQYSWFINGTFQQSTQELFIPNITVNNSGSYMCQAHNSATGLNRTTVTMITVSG
Chain of human CEACAM5 on 293T cells (293T-huCEACAM5 cells) (human) (P06731 35-685 limits assumed): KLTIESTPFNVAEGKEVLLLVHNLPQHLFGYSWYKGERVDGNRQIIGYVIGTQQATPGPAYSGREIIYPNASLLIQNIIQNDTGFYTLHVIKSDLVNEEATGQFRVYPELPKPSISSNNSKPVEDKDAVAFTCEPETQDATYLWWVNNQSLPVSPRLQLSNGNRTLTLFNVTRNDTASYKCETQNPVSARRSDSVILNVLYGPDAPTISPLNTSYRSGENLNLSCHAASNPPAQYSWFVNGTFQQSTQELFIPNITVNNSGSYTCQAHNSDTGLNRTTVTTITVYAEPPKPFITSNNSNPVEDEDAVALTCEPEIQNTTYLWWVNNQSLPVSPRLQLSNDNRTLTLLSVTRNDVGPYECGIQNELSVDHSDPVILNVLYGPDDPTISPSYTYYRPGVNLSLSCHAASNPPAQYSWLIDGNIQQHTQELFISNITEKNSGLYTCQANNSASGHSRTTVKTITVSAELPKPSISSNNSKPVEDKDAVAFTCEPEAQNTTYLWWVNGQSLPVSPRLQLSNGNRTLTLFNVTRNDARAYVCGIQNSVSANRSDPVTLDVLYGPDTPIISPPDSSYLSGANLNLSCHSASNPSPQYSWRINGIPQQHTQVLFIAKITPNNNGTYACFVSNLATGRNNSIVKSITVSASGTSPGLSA

On to IgG-MMAE, for which the IC50 of in vitro cytotoxicity of the ADC (CellTiter-Glo, 6 days) in test [1] is 66; in test [2], 72; in [3], 100; in test [4], 700.

As for PR303561 (Tusamitamab) (antibody), the Internalization of pHAb-dye-labelled antibody, MFI (37° C.-4° C.)/DAR in test [5] came to 8230; in [6], 1320. The EC50 in test [7] was 3.06 nM; in test [8], 1.74 nM.

As for “non-relevant IgG isotype control (Crownbio, hIgG1) (antibody)”, the Internalization of pHAb-dye-labelled antibody, MFI (37° C.-4° C.)/DAR in [9] was determined as 3010; in test [10], 888; in test [11], 975; in test [5] it was 0; in [6] it was 468.

In general, EC50 refers to the concentration needed to bring the measured effect to its halfway point.
